T1: P22 N peptide (bacteriophage P22, UniProt P04891 14-30)
T1 chain: NAKTRRHERRRKLAIER

B1: 4m5 nanostar with P22 boxB (structured_RNA)
RNA 1: GGUGCGCUGACAAAGCGCGCCGAGCUCAGAGUCUCUGGUCGCCAAGCUUAUCGGACACUG
RNA 2: GAGCUCAAGUAGGCACAUCAGCAAGGCGACCAGAGACUC
RNA 3: GAGCUCAUGCGUGGAGACAACGAAGCUGAUGUGCCUACU
RNA 4: GAGCUCACAGUGUCCGAUAAGCAACGUUGUCUCCACGCA
B2: 4m3 nanostar with streptavidin aptamer (structured_RNA)
RNA 1: GAUGCGGCCGCCGACCAGAAUCAUGCAAGUGCGUAAGAUAGUCGCGGGUCGGCGGCCGCAUCGCGCAUCCACGGCGUGUCGCAAGACGCCGACGCGUCG
RNA 2: GCGCAGUCGGGAUAUACCGGAAGCGACACGCCGUGGA
RNA 3: GCGCAAGUCCACAGUGGCGCAACCGGUAUAUCCCGAC
RNA 4: GCGCACGACGCGUCGGCGUCAAGCGCCACUGUGGACU

Columns and labels:
[1] = target: T1, P22 N peptide; assay: fluorescence microscopy recruitment to RNA condensate; 25% aptamer strand; Multi-stranded: 40 mM HEPES, 100 mM KCl, 500 mM NaCl, 5 uM strands (1.25 uM aptamer strand), 70 C melt, 12 h hold (50 C), imaged after 20 C; co-transcriptional: T7 transcription buffer with 10 mM NaCl, 30 mM MgCl2, 2 mM spermidine, 37 C; pH not given; conditions: tags: 6-FAM (stated for single-stranded nanostar experiments); four-arm nanostar of 4 strands, 5' palindromic sticky end GAGCUC on S2-S4; boxB hairpin 5' of the S1 sticky end
[2] = target: streptavidin (fluorescently labeled) (UniProt P22629 25-183); assay: as above; conditions: protein: commercial; tags: fluorescent label; chain copies: 4; four-arm nanostar of 4 strands, 5' palindromic sticky end GCGC on S2-S4; aptamer 5' of the S1 sticky end
Chain of streptavidin (fluorescently labeled) (P22629 25-183): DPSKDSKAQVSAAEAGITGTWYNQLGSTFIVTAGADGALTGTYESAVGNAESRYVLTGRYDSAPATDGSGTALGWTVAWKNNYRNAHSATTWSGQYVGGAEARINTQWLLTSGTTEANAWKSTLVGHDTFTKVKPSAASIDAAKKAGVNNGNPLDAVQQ

Row | Binder | binding result [1] | binding result [2]
1 | B1 | binds | 
2 | B2 |  | binds

Source: article PMC11289419, “Modular RNA motifs for orthogonal phase separated compartments”
